Reference: publication doi:10.1101/2020.12.22.423932

Molecular target: human RPN2, wild type, full length (human) (UniProt Q99460)
Experiment: MST

Sequence of human RPN2, wild type, full length (human) (Q99460 whole entry): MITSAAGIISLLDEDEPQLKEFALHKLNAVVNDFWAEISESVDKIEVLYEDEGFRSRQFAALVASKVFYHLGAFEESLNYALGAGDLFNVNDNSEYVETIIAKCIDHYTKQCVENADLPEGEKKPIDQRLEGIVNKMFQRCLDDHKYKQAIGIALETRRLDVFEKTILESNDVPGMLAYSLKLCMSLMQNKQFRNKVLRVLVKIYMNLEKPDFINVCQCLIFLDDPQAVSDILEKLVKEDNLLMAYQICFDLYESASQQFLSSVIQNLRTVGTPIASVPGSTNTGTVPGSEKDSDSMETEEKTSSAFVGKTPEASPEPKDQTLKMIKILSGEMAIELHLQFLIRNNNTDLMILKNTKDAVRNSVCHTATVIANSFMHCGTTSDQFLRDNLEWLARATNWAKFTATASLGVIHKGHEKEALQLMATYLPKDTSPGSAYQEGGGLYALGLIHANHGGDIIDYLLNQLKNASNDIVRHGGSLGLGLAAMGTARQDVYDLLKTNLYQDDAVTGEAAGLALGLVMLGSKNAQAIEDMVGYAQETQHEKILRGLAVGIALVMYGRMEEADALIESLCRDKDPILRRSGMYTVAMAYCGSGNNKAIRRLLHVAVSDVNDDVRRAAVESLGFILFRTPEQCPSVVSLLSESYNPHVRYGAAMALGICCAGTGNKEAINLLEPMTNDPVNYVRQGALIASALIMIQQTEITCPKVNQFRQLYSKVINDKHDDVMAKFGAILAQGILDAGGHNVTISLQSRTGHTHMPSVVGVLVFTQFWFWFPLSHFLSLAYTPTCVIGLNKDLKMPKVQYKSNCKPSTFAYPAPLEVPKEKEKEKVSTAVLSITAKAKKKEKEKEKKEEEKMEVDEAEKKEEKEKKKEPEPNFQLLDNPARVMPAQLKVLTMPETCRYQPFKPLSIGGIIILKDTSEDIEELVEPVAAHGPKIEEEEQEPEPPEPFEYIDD

Kd: 2.12 mM
Substance: mono-ubiquitin (from UniProt P0CG48 1-76) (natural protein; other documents disagree on this pair)
